How the values were obtained:
[1] = molecular target: T1, human Endosialin expressed by Sjsa-1 cells (human, UniProt Q9HCU0 18-757); test: flow cytometry on Sjsa-1 cells
T1 construct: Endogenous Endosialin on human cell lines; also called Endosialin present on the cell plasma membrane; Endosialin on cell surface (Sjsa-1, T/G HA-VSMC, A673, SKNAS, A375 cells)
T1 sequence: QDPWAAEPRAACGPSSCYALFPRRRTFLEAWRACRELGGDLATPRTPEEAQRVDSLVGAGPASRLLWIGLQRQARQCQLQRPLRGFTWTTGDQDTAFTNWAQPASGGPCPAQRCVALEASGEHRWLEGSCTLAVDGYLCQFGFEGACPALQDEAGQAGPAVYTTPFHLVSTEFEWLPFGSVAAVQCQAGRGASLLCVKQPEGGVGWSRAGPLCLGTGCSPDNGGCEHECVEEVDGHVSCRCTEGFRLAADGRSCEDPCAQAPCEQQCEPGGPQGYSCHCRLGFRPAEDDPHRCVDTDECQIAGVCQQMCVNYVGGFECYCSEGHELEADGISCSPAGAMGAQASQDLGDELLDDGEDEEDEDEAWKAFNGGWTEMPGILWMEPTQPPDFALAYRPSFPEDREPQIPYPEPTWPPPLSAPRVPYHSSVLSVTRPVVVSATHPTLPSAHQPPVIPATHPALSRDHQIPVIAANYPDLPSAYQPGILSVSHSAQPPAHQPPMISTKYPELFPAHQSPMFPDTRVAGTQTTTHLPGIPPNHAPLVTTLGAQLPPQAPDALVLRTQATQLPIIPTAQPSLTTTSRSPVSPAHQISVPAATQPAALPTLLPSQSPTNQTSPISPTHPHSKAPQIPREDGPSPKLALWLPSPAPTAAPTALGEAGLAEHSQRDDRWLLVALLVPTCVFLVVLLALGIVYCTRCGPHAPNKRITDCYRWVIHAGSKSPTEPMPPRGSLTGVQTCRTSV
Protocol: (§1) Materials and Methods: (FIG. 2). (A) Ninety-six well plates (NUNC Maxisorp modules) were pre-coated with human recombinant Endosialin (1 μg/ml) overnight at 4° C. After blocking with 1% BSA in PBS+0.1% Tween-20 for 1 hour at 4° C., mMP-E-8.3, cMP-E-8.3, hMP-E-8.3 and a commercial antibody against Endosialin at the indicated concentration were added and incubated for 2 hours at room temperature. After several washes with PBS+0.1% Tween-20, a goat anti-mouse or anti-human IgG-HRP solution was added to each well and incubated for 1 hour at 37° C. After washes, stabilized chromogen was added to each well for at least 10 minutes in the dark, then the reaction was stopped with the addition of 1 N H₂SO4 and the absorbance was read at 450 nm with an ELISA reader. (B) Sjsa-1 human osteosarcoma cell line were stained with 1 μg/ml of mMP-E-8.3 antibody, or cMP-E-8.3 and hMP-E-8.3 at 100 ng/ml (blue line) and 1 ug/ml (green line) or with 1 μg/ml of a commercial antibody against Endosialin on ice for 30 minutes after incubation with a Goat anti-mouse/anti-human Alexa-488 conjugated antibodies for 1 hour on ice, cells were analyzed by flow cytometer (FACS). (C) Sjsa-1 human osteosarcoma cells were grown on glass coverslips for 24 hours. […]

[2] = molecular target: T2, human recombinant Endosialin (human, UniProt Q9HCU0 18-687, limits assumed); test: ELISA, plate coated with recombinant Endosialin
T2 construct: Coated on ELISA plates at 1 ug/ml; also called TEM-1; TEM1
T2 sequence: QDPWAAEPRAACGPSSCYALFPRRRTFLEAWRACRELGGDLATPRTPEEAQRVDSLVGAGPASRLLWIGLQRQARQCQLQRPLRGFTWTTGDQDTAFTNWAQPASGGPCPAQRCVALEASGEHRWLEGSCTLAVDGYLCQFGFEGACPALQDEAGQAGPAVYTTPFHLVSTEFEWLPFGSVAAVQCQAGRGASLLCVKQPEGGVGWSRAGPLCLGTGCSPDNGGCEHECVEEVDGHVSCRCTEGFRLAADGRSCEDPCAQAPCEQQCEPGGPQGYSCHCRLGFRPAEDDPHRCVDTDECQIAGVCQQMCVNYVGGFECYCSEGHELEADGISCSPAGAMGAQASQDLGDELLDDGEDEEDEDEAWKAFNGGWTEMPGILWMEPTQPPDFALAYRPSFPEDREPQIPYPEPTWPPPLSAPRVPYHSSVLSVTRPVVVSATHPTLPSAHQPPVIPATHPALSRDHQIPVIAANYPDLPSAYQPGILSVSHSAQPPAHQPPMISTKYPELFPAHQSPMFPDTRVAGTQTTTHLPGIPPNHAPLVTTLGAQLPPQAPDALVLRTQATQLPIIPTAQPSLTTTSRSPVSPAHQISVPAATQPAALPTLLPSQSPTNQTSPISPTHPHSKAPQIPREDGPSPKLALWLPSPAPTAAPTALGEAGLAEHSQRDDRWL
Protocol: as §1

binding result [1]: binds | binding result [2]: binds
B1: cMP-E-8.3 (antibody, V domains shown)
VH: QVQLQESGPGLVAPSQSLSITCTVSGFSLTGYGVNWVRQPPEKGLEWLGMIWVDGSTDYNSALKSRLNISKDKSKSQVFLKMNSLQTDDTARYYCARGGYGAMDYWGQGTSVTVSS
VL: DIQMNQSPSSLSASLGDTITITCHASQNINVWLTWYQQKPGNIPKLLIYKASNLHTGVPSRFSGSGSGTGFTLTISSLQPEDIATYYCQQGQSYPWTFGGGTKLEIKR
notes: also called chimeric cMP-E-8.3; chimerized version of mMP-E-8.3
